Test results taken from US20260055171A1 (Regeneron, published 2026).

What was measured:
hCD16a-Biotin = target: T1, hCD16a-Biotin (human, UniProt P08637 17-208, biotin (site not stated)); assay: binding kinetics on hCD16a-Biotin, signal (nm) against time (sec); platform not named
T1 construct: also called CD16 (FcγRIIIa); CD16a (FcGRIIIa)
Experimental: (§1) Binding affinity of VEGF antagonists to Fc receptors CD16 (FcγRIIIa), CD64 (FcγRI), and FcRn was evaluated using hCD16-biotin, hCD64-biotin, and hFcRn-β2M-biotin.
(§2) For FcγRIIIa and FcγRI binding assessments, each construct was diluted 1:5 from a starting concentration of 50 nM, except Hex-REGN3 (IgG1) Mut1 PVA/P329A, which was evaluated only at the highest concentration. For FcRn assessments, each construct was diluted 1:5 from a starting concentration of 200 nM, except Hex-REGN3 (IgG1) Mut1 PVA/P329A, which was evaluated only at the highest concentration.

hCD64-Biotin [1] = target: T2, hCD64-Biotin (human, UniProt P12314 16-288, limits assumed, biotin (site not stated)); assay: binding kinetics on hCD64-Biotin, signal (nm) against time (sec); construct diluted 1:5 from 50 nM, concentrations not labelled on the sheet; platform not named
T2 construct: also called CD64 (FcγRI); CD64 (FcGRI)
T2 sequence (P12314 16-288 limits assumed): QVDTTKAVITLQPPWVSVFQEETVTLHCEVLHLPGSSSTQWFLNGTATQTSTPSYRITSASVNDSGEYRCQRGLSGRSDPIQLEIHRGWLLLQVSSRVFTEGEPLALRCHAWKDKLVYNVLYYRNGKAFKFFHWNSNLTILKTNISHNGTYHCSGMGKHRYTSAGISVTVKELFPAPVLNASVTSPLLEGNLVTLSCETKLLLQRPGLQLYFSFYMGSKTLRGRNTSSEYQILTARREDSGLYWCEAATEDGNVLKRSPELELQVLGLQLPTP
Experimental: as §1, §2

hFcRn-β2M-Biotin [2] = target: T3, hFcRn-β2M-Biotin (human, UniProt P55899 24-297; P61769 21-119, biotin (site and chain not stated)); assay: binding kinetics on hFcRn-β2M-Biotin, signal (nm) against time (sec); construct diluted 1:5 from 200 nM, concentrations not labelled on the sheet; platform not named
Experimental: as §1, §2

hCD64-Biotin [3] = target: T2, hCD64-Biotin; assay: binding kinetics on hCD64-Biotin, instrument not named
Experimental: as §1, §2

hFcRn-β2M-Biotin [4] = target: T3, hFcRn-β2M-Biotin; assay: binding kinetics on hFcRn-β2M-Biotin, instrument not named
Experimental: as §1, §2

hCD64-Biotin [5] = target: T2, hCD64-Biotin; assay: binding kinetics on hCD64-Biotin, signal (nm) against time (sec); platform not named
Experimental: as §1, §2

T1 sequence (P08637 17-208 limits assumed): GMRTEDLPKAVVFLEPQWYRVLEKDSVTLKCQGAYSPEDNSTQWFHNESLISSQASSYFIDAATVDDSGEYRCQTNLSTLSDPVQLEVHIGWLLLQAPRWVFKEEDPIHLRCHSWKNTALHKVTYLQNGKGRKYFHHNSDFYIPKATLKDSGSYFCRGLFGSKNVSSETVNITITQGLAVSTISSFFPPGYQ

| binding result (hCD64-Biotin [1]) | binding result (hFcRn-β2M-Biotin [2]) | Kd (hCD64-Biotin [3]) | koff (hCD64-Biotin [3]) | kon (hCD64-Biotin [3]) | Kd (hFcRn-β2M-Biotin [4]) | koff (hFcRn-β2M-Biotin [4]) | kon (hFcRn-β2M-Biotin [4]) | Binder | binding result (hCD16a-Biotin) | binding result (hCD64-Biotin [5]) |
| --- | --- | --- | --- | --- | --- | --- | --- | --- | --- | --- |
| binds | binds |  |  |  |  |  |  | Hex-REGN3 (IgG1) Mut2 LALAPG (Fc fusion, Hexameric VEGF antagonist designed as six dimers) SDTGRPFVEMYSEIPEIIHMTEGRELVIPCRVTSPNITVTLKKFPLDTLIPDGKRIIWDSRKGFIISNATYKEIGLLTCEATVNGHLYKTNYLTHRQTNTIIDVVLSPSHGIELSVGEKLVLNCTARTELNVGIDFNWEYPSSKHQHKKLVNRDLKTQSGSEMKKFLSTLTIDGVTRSDQGLYTCAASSGLMTKKNSTFVRVHEKDKTHTCPPCPAPEAAGGPSVFLFPPKPKDTLMCSRTPEVTCVVVDVSHEAPEVKFNWYVDGVEVHNAKTKPREEQYNSTYRVVSVLTVLHQDWLNGKEYKCKVSNKALGAGIEKTISKAKGQPREPQVYTLPPSRDELTKNQVSLTCLVKGFYPSDIAVEWESNGQPENNYKTTPPVLDSDGSFFLYSKLTVDKSRWQQGNVFSCSVMHEALHNHYTQKSLSLSPGKPTLYNVSLVMSDTAGTCY | no binding (tested: 50 nM (not printed on the sheet)) |  |
|  |  | 0.0638 nM | 0.000511 s⁻¹ | 8.01e+06 M⁻¹ s⁻¹ | < 0.001 nM | < 1e-07 s⁻¹ | 31000 M⁻¹ s⁻¹ | Hex-REGN3 (IgG1) Mut1 LALAPG (Fc fusion, Hexamer of six dimers (VEGFR1 domain 2 - VEGFR2 domain 3 - IgG1 Fc - IgM tailpiece); also called HEX-REGN3 (IgG1) LALAPG Mut1; hexameric Hex-REGN3) SDTGRPFVEMYSEIPEIIHMTEGRELVIPCRVTSPNITVTLKKFPLDTLIPDGKRIIWDSRKGFIISNATYKEIGLLTCEATVNGHLYKTNYLTHRQTNTIIDVVLSPSHGIELSVGEKLVLNCTARTELNVGIDFNWEYPSSKHQHKKLVNRDLKTQSGSEMKKFLSTLTIDGVTRSDQGLYTCAASSGLMTKKNSTFVRVHEKDKTHTCPPCPAPEAAGGPSVFLFPPKPKDTLMISRTPEVTCVVVDVSHEDPEVKFNWYVDGVEVHNAKTKPREEQYNSTYRVVSVLTVCHQDWLNGKEYKCKVSNKALGAPIEKTISKAKGQPREPQVYTLPPSREEMTKNQVSLTCLVKGFYPSDIAVEWESNGQPENNYKTTPPVLDSDGSFFLYSKLTVDKSRWQQGNVFSCSVMHEALHNHYTQKSLDKSTGKPTLYNVSLIMSDTGGTCY | no binding (tested: 50 nM (not printed on the sheet)) |  |
|  |  |  |  |  |  |  |  | Hex-REGN3 (IgG1) Mut1-V2 PVA/P329A (Fc fusion, Hexameric VEGF antagonist designed as six dimers; also called Hex-REGN3 (IgG1) Mut1 PVA/P329A) SDTGRPFVEMYSEIPEIIHMTEGRELVIPCRVTSPNITVTLKKFPLDTLIPDGKRIIWDSRKGFIISNATYKEIGLLTCEATVNGHLYKTNYLTHRQTNTIIDVVLSPSHGIELSVGEKLVLNCTARTELNVGIDFNWEYPSSKHQHKKLVNRDLKTQSGSEMKKFLSTLTIDGVTRSDQGLYTCAASSGLMTKKNSTFVRVHEKDKTHTCPPCPAPPVAGPSVFLFPPKPKDTLMISRTPEVTCVVVDVSHEDPEVKFNWYVDGVEVHNAKTKPREEQYNSTYRVVSVLTVCHQDWLNGKEYKCKVSNKALAAPIEKTISKAKGQPREPQVYTLPPSREEMTKNQVSLTCLVKGFYPSDIAVEWESNGQPENNYKTTPPVLDSDGSFFLYSKLTVDKSRWQQGNVFSCSVMHEALHNHYTQKSLDKSTGKPTLYNVSLVMSDTAGTCY | no binding (tested: 50 nM (not printed on the sheet)) | no binding (tested: 50 nM (not printed on the sheet)) |
